First the molecules themselves.
T1: soluble human CD73 (Homo sapiens, UniProt P21589)
T1 construct: The ectodomain of CD73 (aa 27-549) was expressed as a recombinant protein with a C-terminal His6× tag; His6 (C); made in house; host or cells: transiently transfected HEK cells
T1 sequence (P21589 27-549): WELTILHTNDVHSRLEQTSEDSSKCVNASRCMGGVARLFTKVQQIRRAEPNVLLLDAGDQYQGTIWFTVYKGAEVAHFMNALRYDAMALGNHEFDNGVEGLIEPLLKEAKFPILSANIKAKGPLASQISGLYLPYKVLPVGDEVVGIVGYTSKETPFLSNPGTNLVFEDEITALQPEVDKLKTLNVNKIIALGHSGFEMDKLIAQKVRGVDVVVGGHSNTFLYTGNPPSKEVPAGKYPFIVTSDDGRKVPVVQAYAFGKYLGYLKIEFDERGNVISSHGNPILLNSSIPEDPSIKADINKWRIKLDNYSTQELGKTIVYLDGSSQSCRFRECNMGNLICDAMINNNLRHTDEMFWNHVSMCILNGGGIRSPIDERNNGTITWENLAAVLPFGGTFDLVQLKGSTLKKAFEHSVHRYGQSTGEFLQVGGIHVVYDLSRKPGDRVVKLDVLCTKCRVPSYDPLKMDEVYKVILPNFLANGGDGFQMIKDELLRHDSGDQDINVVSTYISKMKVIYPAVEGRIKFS

T2: recombinant human CD73 ectodomain (aa 27-549) with C-terminal His6x tag (human, UniProt P21589 27-549)
T2 construct: also called soluble recombinant human CD73; soluble human CD73
T2 sequence: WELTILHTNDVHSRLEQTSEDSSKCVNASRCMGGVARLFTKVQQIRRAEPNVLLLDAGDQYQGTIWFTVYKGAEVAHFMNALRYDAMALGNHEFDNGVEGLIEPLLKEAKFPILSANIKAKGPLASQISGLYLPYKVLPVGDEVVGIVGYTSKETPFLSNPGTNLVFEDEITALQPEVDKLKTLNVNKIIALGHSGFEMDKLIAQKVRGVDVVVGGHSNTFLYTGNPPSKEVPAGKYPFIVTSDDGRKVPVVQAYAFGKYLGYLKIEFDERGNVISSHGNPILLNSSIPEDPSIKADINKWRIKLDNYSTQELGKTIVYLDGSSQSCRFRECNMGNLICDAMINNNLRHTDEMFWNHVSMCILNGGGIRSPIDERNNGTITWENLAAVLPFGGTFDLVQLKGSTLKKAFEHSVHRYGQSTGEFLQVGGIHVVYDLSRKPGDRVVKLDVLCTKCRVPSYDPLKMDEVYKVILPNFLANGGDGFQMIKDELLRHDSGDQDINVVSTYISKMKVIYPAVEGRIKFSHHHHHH

B1: SB125: CD73-specific alpaca VHH clone, family 1, SEQ ID NO:68; tested as rabbit IgG hcAb (antibody)
heavy: QVQLQESGGGLVQPGGSLRLSCAVSGFALDYYTIGWFRQAPGKEREGVSCISSSGGSTNYADSVKGRLTISRDNAKNTVYLQMNSLKPEDTAVYYCAAQRYYYCSDKVEVYDYWGQGTQVTVSS
modifications: left off: a dimerising Fc or GST
notes: tested as rabbit IgG hcAb
B2: SB123: CD73-specific alpaca VHH clone, family 1, SEQ ID NO:64; tested as rabbit IgG hcAb (antibody)
heavy: DVQLQESGGGLVQPGGSLTLSCAASGFTLDYLSIGWFRQVPGKEREGVSCINSSGGSTNYADSVKGRLTISRDNAKNTVYLQINSLKPEDTAVYYCAAHKYYYCSNKVAVFDYWGQGTQVTVSS
modifications: left off: a dimerising Fc or GST
notes: tested as rabbit IgG hcAb
B3: SB124: CD73-specific alpaca VHH clone, family 1, SEQ ID NO:65; tested as rabbit IgG hcAb (antibody)
heavy: QVQLQESGGGLVQPGGSLRLSCAASGFTLDYYTIGWFRQAPGKEREGVSCVSSSGDRTDYLESVKGRLTISRDNAKNTVYLQMNSLKPEDTGVYYCAAQKYYYCSGKVEVYDYWGQGTQVTVSS
modifications: left off: a dimerising Fc or GST
notes: tested as rabbit IgG hcAb
B4: SB142 rabbit IgG hcAb (Fc fusion)
heavy: QVQLVESGGGLVQPGGSLRLSCAASGFTFINYHMSWLRQAPGKGLEWVSEIHSRGDITSYTNSVKGRFTISRDNAKNTLYLQMNSLKFDDTAVYYCARSRDLFGEGEYDYWGRGTQVTVSS
notes: not shown: hinge and Fc-domains of rabbit IgG
B5: SB125 rabbit IgG hcAb (Fc fusion)
heavy: QVQLQESGGGLVQPGGSLRLSCAVSGFALDYYTIGWFRQAPGKEREGVSCISSSGGSTNYADSVKGRLTISRDNAKNTVYLQMNSLKPEDTAVYYCAAQRYYYCSDKVEVYDYWGQGTQVTVSS
notes: as for B4
B6: SB124 rabbit IgG hcAb (Fc fusion)
heavy: QVQLQESGGGLVQPGGSLRLSCAASGFTLDYYTIGWFRQAPGKEREGVSCVSSSGDRTDYLESVKGRLTISRDNAKNTVYLQMNSLKPEDTGVYYCAAQKYYYCSGKVEVYDYWGQGTQVTVSS
notes: as for B4
B7: SB108 rabbit IgG hcAb (Fc fusion)
heavy: QVKLQESGGGLVHSGGSLRLSCAVSGFALDYYTIGWFRQAPGKEREGVSCISSSGSSTNYADSMKGRLTISRDNAKNTVYLQMNSLKPEDTAVYYCAAQRYYYCSDKVAVYDYWGQGTQVTVSS
notes: as for B4
B8: SB115 rabbit IgG hcAb (Fc fusion)
heavy: DVQLQASGGGLVQPGGSLRLSCVVSGFTLDYYTIGWFRQAPGKEREGVSCINSSGGVTNYADSVKGRFTISRDNAKNTVYLQMNSLKSEDTAVYYCAAQKYYYCSRKGEVYDSWGQGTQVTVSS
notes: as for B4
B9: SB98 rabbit IgG hcAb (Fc fusion)
heavy: QVKLQESGGGLVQPGGSLRLSCAASGFTLDYYTIGWFRQAPGKEREGVSCISSSGGITNYADSVKGRLTISRDNAKNTVYLQMNSLKPEDTAVYYCAAQKYYYCSGKAEVYDYWGQGTQVTVSS
notes: as for B4
B10: SB123 rabbit IgG hcAb (Fc fusion)
heavy: DVQLQESGGGLVQPGGSLTLSCAASGFTLDYLSIGWFRQVPGKEREGVSCINSSGGSTNYADSVKGRLTISRDNAKNTVYLQINSLKPEDTAVYYCAAHKYYYCSNKVAVFDYWGQGTQVTVSS
notes: as for B4

For one assay, the target named is T1, soluble human CD73. Briefly: Off-rates of soluble CD73 from immobilized Nb-rbIgG hcAb on Octet BLI. The class given is binding. To be noted: soluble human CD73 ectodomain 200 ng/μl as analyte; Nb-rbIgG hcAb immobilized on protein A biosensor. On the procedure: (§1) The binding off-rate constants of bivalent hcAbs to human and mouse CD73 protein were determined by […] kinetic analysis on Octet RED96 (ForteBio). Immobilization of rabbit IgG hcAbs on the protein A-biosensor surface was done in HEK-6E cell supernatant, and regeneration of analytes was done with 100 mM Glycin pH=2.5. Recombinant mouse or human CD73 ectodomain was used as analytes and tested at a saturating dose of 200 ng/μl. Sensorgrams were fitted using least square regression in association than dissociation Model in Prism8 (Graphpad).
In general terms: Biolayer interferometry detects binding as a change in optical thickness at a sensor tip.
As for B1, the Kdis is 0.00058 s⁻¹.

B2 gave a Kdis of 4.3e-05 s⁻¹.

Take B3: the Kdis is 0.0011 s⁻¹.

A further assay has as its target T2, recombinant human CD73 ectodomain (aa …). Briefly: BLI (Octet), immobilized Nb-rbIgG hcAb, soluble human CD73 as analyte.
Conditions: not given
How it is done: as §1
What is called koff is the first-order rate constant of dissociation. For the molecule B4, the koff stood at 0.00036 s⁻¹.

Regarding B5, the koff was 0.00058 s⁻¹.

Regarding B6, the off-rate (koff) amounted to 0.0011 s⁻¹.

For the molecule B7, the koff was found to be 9.7e-05 s⁻¹.

In the case of B8, the off-rate constant (koff) came to 0.00035 s⁻¹.

Take B9: the koff came to 0.0018 s⁻¹.

For B10, the koff stood at 4.3e-05 s⁻¹.

Values taken from patent publication US20240417484A1, “ANTIGEN-BINDING POLYPEPTIDES AGAINST CD73” (UNIVERSITÄTSKLINIKUM HAMBURG-EPPENDORF, priority 2021, published 2024).
